The record followed here is patent US20140017790A1, “CONTROL AGENT FOR CONTROLLING UNDIFFERENTIATED STATE AND USE THEREOF” (RIKEN, priority 2011, published 2014).

Type in all cases: cell-based
One assay relates to mouse iPS cells. The experiment in a line: quantitative RT-PCR of undifferentiated marker genes, CCL2 overexpressed in mouse iPS cells. To be noted: CCL2 overexpressed (Ccl2 expression vector), feeder free, 24 hours. As to the method: A PrimeScript RT-PCR Kit (trade name, TAKARA BIO INC.), an ABI 7500 Fast real time PCR system (trade name, Applied BioSystems), and a SYBR (registered trademark) Premix Ex Taq (trade name, TAKARA BIO INC.) were used in accordance with their protocols. PCR was carried out by conducting 40 cycles of treatment with a treatment at 94° C. for 5 second and at 62.5° C. for 20 seconds as 1 cycle. The expression level of each gene was calculated by normalizing the relative amount of mRNA in the gene to Gapdh mRNA according to the 2^−ΔΔ^CT method (Thomse R, Solvsten C A, Linnet T E, et al., Analysis of qPCR data by converting exponentially related Ct values into linearly related XO values. J Bioinform Comput Biol 2010: 8: 885-900.).
In the following manner, CCL2 was overexpressed in the mouse iPS cells, and the expression levels of undifferentiated marker genes were examined. The undifferentiated marker genes were the Ecat1 gene, Cripto gene, Oct3/4 gene, Zfp42 gene, Esg1 gene, Eras gene, Fgf4 gene, Dax1 gene, Nanog gene, Sox2 gene, Klf4 gene, cMyc gene, Tbx3 gene, and Eed gene.
A Ccl2 expression vector that overexpresses CCL2 was constructed. The CCL2 to be expressed was a mouse-derived protein having a full-length amino acid sequence of SEQ ID NO: 3. First, using a Gateway Technology (Invitrogen), a full-length cDNA (SEQ ID NO: 6) coding for the CCL2 was cloned into a pENTER/D-TOPO vector. The cloned sequence was confirmed, and thereafter, the full-length cDNA was inserted into an EF-α1 promoter-containing pEF-DEST51 vector (Invitrogen) using a Gateway LR Clonase II Enzyme Mix (Invitrogen), thus constructing the Ccl2 expression vector. The Ccl2 expression vector was purified using an Endotoxin free Plasmid maxi prep kit (Qiagen) in accordance with its protocol.
Next, the mouse iPS cells cultured under the feeder free conditions were seeded in a 12-well dish at a density of 3×10^5 cells/well. The amount of a medium to be added to the dish was set to 1 ml/well. Then, using 16 μl of a Lipofectamine 2000 (Invitrogen) and 4.8 μg of the Ccl2 expression vector per well, the mouse iPS cells were transfected with the Ccl2 expression vector. These mouse iPS cells were cultured for another 24 hours under feeder free conditions. Thereafter, total RNAs were extracted, and the expression levels of the undifferentiated marker genes were examined. The expressions of the undifferentiated marker genes were examined by the quantitative RT-PCR using the above-described primers. […] Then, the fold changes in expression level relative to the negative control were calculated.

In a further assay the test system is STAT3. As to the kind of experiment: Western blotting, phosphorylation of STAT3 in mouse iPS cells. To be noted: CCL2 overexpressed, 24 hours, relative to negative control. As to the method: The mouse iPS cells transfected with the Ccl2 expression vector were cultured for 24 hours in the same manner as in Example 1. After the culture, the mouse iPS cells were washed with PBS, and then were suspended in 100 μl of a mammalian m-PER lysis buffer. The suspension was passed through a 26-gauge needle for 10 minutes to homogenize the cells. Then, the suspension was centrifuged at 13,000 rpm and 4° C. for 5 minutes, and the supernatant was collected. The protein concentration in the supernatant was measured using a Pierce (registered trademark) BCA Protein assay (trade name, Thermo Scientific). Next, the supernatant was subjected to Western blotting to detect a target protein. […] Then, luminescence on the membrane was detected using a Fuji LAS-3000 luminescent image analyzer.
As the primary antibody, an anti-phosphorylated STAT3 antibody (anti-pSTAT3 antibody, commercially available from CST, #9145) was used for the phosphorylated STAT3 (pSTAT3), an anti-STAT3 antibody (CST, #9132) was used for the STAT3 protein, and an anti-GAPDH antibody (Santa Cruz Biotechnology Inc, #25778) was used for GAPDH, which is an expression control. […] Then, the ratio of the phosphorylated STAT3 to the non-phosphorylated STAT3 (pSTAT3/STAT3) was determined. […]
Background: Immunoblotting shows a protein as a band on a membrane.

Another assay has as its system human iPS cells. The experiment in a line: differentiation of EBs to myocardial cells, morphology and Tropomyosin immunostaining. To be noted: 10th day from the plating; CCL2(+)/LIF(+) or CCL2(-)/bFGF(+) 5 ng/ml. The source says: It has been reported that, in general, according to the spontaneous differentiation-inducing method used in the above item (1), differentiation into myocardial cells is more liable to occur. Thus, regarding the cells on the 10th day from the plating in the above item (1), differentiation into myocardial cells was examined.
The morphology of the cells was examined with a microscope. Furthermore, they were immunostained with a Tropomyosin, which is a marker for myocardial cells. Also, culture of the cells, observation of the morphology, and staining were carried out in the same manner as in the above using a medium to which bFGF (5 ng/ml) has been added instead of the CCL2 and LIF.
The photographs in FIG. 19 show the morphologies of the cells on the 10th day from the plating of EB. […] Furthermore, in FIGS. 19A and 19B, the photographs on the left show the cell morphologies, and the photographs on the right show the stained cells. In the black and white photographs of FIG. 19, the stained portions are seen as light gray.

B1: CCL2: mouse recombinant CCL2 (MCP-1, #479-JE-010, R&D Systems); in Examples 1, 3, 4(1), 5 mouse CCL2 (SEQ ID NO: 3) overexpressed from Ccl2 expression vector (protein, listed as Mus musculus)
chain: MQVPVMLLGLLFTVAGWSIHVLAQPDAVNAPLTCCYSFTSKMIPMSRLESYKRITSSRCPKEAVVFVTKLKREVCADPKKEWVQTYIKNLDRNQMRSEPTTLFKTASALRSSAPLNVKLTRKSEANASTTFSTTTSSTSVGVTSVTVN
Take B1: in the assay on mouse iPS cells, the “expression of the Klf4 gene, fold change relative to negative control” value is “increased markedly”; the “expression of the Nanog gene, fold change relative to negative control” value was “increased markedly”; the “expression of the Sox2 gene, fold change relative to negative control” value is “increased markedly”; the “expression of the Tbx3 gene, fold change relative to negative control” value was “increased markedly”. The “ratio of phosphorylated STAT3 to non-phosphorylated STAT3 (pSTAT3/STAT3)” value with STAT3 is on record as “increased”. In the assay with human iPS cells, the “cell morphology of EBs, differentiation into myocardial cells” value is reported as “most of them exhibited myocardial cell-like morphology” and the “staining with Tropomyosin (marker for myocardial cells)” value was “entirely stained red”.
